Patent US8106168B2, “Metalloproteinase binding proteins” (Dyax Corp., priority 2005, dated 2012)

Assays:
MMP-14 [1] = target: T1, MMP-14 (Homo sapiens, UniProt P50281); assay: Selection and phage ELISA screening of anti-MMP-14 Fabs; format: binding; conditions: Fab from FAB310 phage display library
Summary of the method: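 The FAB310 phage library was panned on biotinylated MMP-14, alone or complexed with bead-bound TIMP-2, at 500 nM and then 100 nM over three rounds. Phage was eluted with 2.5 μM TIMP-2, then 100 mM TEA. For ELISA, 95 clones per round were screened against 1 μg/ml biotinylated MMP-14 captured on streptavidin in TRIS/5 mM CaCl2, pH 7.5.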

MMP-14 [2] = target: T1, MMP-14; assay: IC50 for MMP-14 inhibition by Fabs and IgGs; format: biochemical; conditions: Fab
Protocol: MMP-14 binding proteins can be characterized in assays that measure their modulatory activity toward MMP-14 or fragments thereof in vitro or in vivo. For example, MMP-14 can be combined with a substrate such as Mca-Pro-Leu-Ala-Cys(Mob)-Trp-Ala-Arg-Dap(Dnp)-NH2 under assay conditions permitting cleavage by MMP-14. The assay is performed in the absence of the MMP-14 binding protein, and in the presence of increasing concentrations of the MMP-14 binding protein. The concentration of binding protein at which 50% of the MMP-14 activity (e.g., binding to the substrate) is inhibited is the IC50 value (Inhibitory Concentration 50%) or EC50 (Effective Concentration 50%) value for that binding protein.

MMP-16 [3] = target: T2, MMP-16 (Homo sapiens, UniProt P51512); assay: Cross-reactivity of anti-MMP-14 IgGs, enzymatic activity: MMP-16; format: biochemical; conditions: 1 μM anti-MMP-14 IgG
Protocol: The cross-reactivity of exemplary anti-MMP-14 IgGs and Fabs with other human MMPs and TACE (TNF-alpha converting enzyme) was examined. MMP and TACE enzymatic activity was monitored in the absence and presence of 1 μM anti-MMP-14 IgG antibody. Inhibition (Y) of activity ranged from approximately 50-80% of the reaction rate observed in the absence of antibody. “X” indicates no inhibition was observed. Cross-reactivity was not determined for MMP-17 because protein activity could not be detected.
For the studies summarized in Table 12, six anti-MMP-14 IgGs were selected for cross-reactivity testings: M0043-G02, M0040-A06, M0037-D01, M037-C09, M0038-F01, M0033-H07.

MMP-16 [4] = target: T2, MMP-16; assay: Cross-reactivity of Fabs and IgGs with MMP-16 (Example 8); format: biochemical; design: key to MMP-16 (cross-reactivity, class symbol): X: Does not inhibit MMP-16 at [I] = 100 nM level; conditions: 5 nM MMP16, 30 minutes at 30° C., 10 μM substrate
Protocol: For the studies summarized in Tables 13 and 14, 100 nM anti-MMP-14 Fab/IgG were incubated with 5 nM MMP16 for 30 minutes at 30° C., 10 μM of substrate was added, and the MMP-16 activity was measured.

MMP-16 [5] = target: T2, MMP-16; assay: Cross-reactivity of Fabs with MMP-16 (Example 9); format: biochemical; design: key: X: Do not inhibit MMP-16 or MMP-24 at [I] = 100 nM level; Y: partially inhibit at [I] = 100 nM level; conditions: Fab, 100 nM final inhibitor concentration, 5 nM MMP-16
Protocol: (§1) For the studies summarized in Table 15, 1 μM of anti-MMP-14 Fab/IgG (100 nM final inhibitor concentration) were incubated with 5 nM of MMP-16 or 5 nM of MMP-24 for 30 minutes at 30° C., 10 μM of substrate was added, and the MMP-16 activity was measured.

MMP-24 = MMP-24 (Homo sapiens, UniProt Q9Y5R2); assay: Cross-reactivity of Fabs with MMP-24 (Example 9); format: biochemical; design: key to MMP-24 (cross-reactivity, class symbol): X: Do not inhibit MMP-16 or MMP-24 at [I] = 100 nM level; Y: partially inhibit at [I] = 100 nM level; conditions: Fab, 100 nM final inhibitor concentration; 5 nM MMP-24
Protocol: as §1

MMP-24, sequence (Q9Y5R2 156-645): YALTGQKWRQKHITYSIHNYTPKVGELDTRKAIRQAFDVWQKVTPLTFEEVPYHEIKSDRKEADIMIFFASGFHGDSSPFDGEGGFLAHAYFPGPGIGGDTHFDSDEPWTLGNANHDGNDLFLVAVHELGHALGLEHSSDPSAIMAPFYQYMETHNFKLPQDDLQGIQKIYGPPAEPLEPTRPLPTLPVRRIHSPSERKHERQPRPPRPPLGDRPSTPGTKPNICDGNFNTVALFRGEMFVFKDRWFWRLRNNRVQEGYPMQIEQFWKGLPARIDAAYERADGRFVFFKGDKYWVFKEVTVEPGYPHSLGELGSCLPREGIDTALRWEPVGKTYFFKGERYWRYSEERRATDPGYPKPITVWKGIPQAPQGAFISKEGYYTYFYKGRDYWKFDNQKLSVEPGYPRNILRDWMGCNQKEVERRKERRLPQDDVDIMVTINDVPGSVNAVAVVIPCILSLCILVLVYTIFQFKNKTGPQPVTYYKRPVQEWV
T2 sequence (P51512 120-607): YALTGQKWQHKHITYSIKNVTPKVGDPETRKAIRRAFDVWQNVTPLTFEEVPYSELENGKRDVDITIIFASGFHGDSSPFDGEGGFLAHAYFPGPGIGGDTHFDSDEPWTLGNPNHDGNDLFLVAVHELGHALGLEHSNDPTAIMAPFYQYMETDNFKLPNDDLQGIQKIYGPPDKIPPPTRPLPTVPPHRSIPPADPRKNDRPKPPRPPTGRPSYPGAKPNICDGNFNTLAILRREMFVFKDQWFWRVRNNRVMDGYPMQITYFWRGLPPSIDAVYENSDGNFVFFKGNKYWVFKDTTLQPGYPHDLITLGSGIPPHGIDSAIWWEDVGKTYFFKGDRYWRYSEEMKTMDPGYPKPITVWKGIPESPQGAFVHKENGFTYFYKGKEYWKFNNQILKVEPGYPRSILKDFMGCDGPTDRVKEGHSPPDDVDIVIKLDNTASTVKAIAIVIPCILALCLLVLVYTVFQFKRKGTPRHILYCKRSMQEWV

Row | bind to human MMP-14 (MMP-14 [1]) | bind to and inhibit human MMP-14 (MMP-14 [2]) | MMP-16 (cross-reactivity, class symbol) (MMP-16 [4]; Fab 100 nM) | MMP-16 (cross-reactivity, class symbol) (MMP-16 [4]; IgG 100 nM) | MMP-16 (cross-reactivity, class symbol) (MMP-16 [5]) | MMP-24 (cross-reactivity, class symbol) (MMP-24) | MMP-24 inhibition (MMP-24) | MMP-16 inhibition (MMP-16 [4]; Fab 100 nM) | MMP-16 inhibition (MMP-16 [4]; IgG 100 nM) | Molecule | Cross reactivity: inhibition of MMP-16 activity (MMP-16 [3])
1 | bind to human MMP-14 | bind to and inhibit human MMP-14 | X | X | X | X |  |  |  | M0038-F01: human antibody (Fab, IgG) that binds and inhibits MMP-14; HC SEQ ID NO: 156, LC SEQ ID NO: 157 (antibody, V domains shown, Synthetically generated peptide) VH: EVQLLESGGGLVQPGGSLRLSCAASGFTFSLYSMNWVRQAPGKGLEWVSSIYSSGGSTLYADSVKGRFTISRDNSKNTLYLQMNSLRAEDTAVYYCARGRAFDIWGQGTMVTVSS VL: QDIQMTQSPSSLSAFVGDKVTITCRASQSVGTYLNWYQQKAGKAPELLIYATSNLRSGVPSRFSGSGSGTDFTLTINTLQPEDFATYYCQQSYSIPRFTFGPGTKVDIK | Y (Inhibition (Y) of activity ranged from approximately 50-80% of the reaction rate observed in the absence of antibody)
2 | bind to human MMP-14 | bind to and inhibit human MMP-14 | X | X | X |  | Y 65% inhibition |  |  | M0040-A06: human antibody (Fab, IgG) that binds and inhibits MMP-14; HC SEQ ID NO: 162, LC SEQ ID NO: 163 (antibody, V domains shown, Synthetically generated peptide) VH: EVQLLESGGGLVQPGGSLRLSCAASGFTFSYYGMYWVRQAPGKGLEWVSSISSSGGYTDYADSVKGRFTISRDNSKNTLYLQMNSLRAEDTAVYYCARRIKYYDIEGEGAFDIWGQGTMVTVSS VL: QDIVMTQTPPSLPVNPGEPASISCRSSQSLLHRNGYNYLDWYLQKPGQSPQLLIHLGSYRASGVPDRFSGSGSGTDFTLKISRVEAEDVGVYYCMQPLQTPFTFGPGTKVDIK | Y (Inhibition (Y) of activity ranged from approximately 50-80% of the reaction rate observed in the absence of antibody)
3 | bind to human MMP-14 | bind to and inhibit human MMP-14 |  |  | X |  | Y 74% inhibition | Y 70% inhibition | Y 94% inhibition | M0043-G02: human antibody (Fab, IgG) that binds and inhibits MMP-14; HC SEQ ID NO: 166, LC SEQ ID NO: 167 (antibody, V domains shown, Synthetically generated peptide) VH: EVQLLESGGGLVQPGGSLRLSCAASGFTFSWYPMFWVRQAPGKGLEWVSGIYSSGGPTDYADSVKGRFTISRDNSKNTLYLQMNSLRAEDTAVYYCAKDTLGRYYDFWSGYSYGMDVWGQGTTVTVSS VL: QDIQMTQSPGTLSLSPGERATLSCRASQSVSSSYLAWYQQKPGQAPRLLIYGASSRATGIPDRFSGSGSGTDFTLTISRLEPEDFAVYYCQSGVTFGGGTKVEIK | Y (Inhibition (Y) of activity ranged from approximately 50-80% of the reaction rate observed in the absence of antibody)
